These are literature values, as cited in publication PMC11727785.

Where two headings read alike, the source gives them in different places.

In series [1] the target is IL-18 receptor alpha chain (Homo sapiens) (UniProt Q13478).
Series [2] has as its target IL-18 receptor complex (Homo sapiens) (UniProt Q13478).
Series [3] addresses IL-18 (Homo sapiens) (UniProt Q14116). The experiment in a line: SPR.
Series [4] shares this target.

Chain of IL-18 (Homo sapiens) (Q14116 37-193): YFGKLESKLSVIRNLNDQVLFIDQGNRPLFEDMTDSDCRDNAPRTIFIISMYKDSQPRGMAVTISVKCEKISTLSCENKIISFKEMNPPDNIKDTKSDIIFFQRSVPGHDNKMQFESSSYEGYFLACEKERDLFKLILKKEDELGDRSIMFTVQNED
Chain of IL-18 (Q14116 37-193): as above
Chain of IL-18BP (O95998 31-194): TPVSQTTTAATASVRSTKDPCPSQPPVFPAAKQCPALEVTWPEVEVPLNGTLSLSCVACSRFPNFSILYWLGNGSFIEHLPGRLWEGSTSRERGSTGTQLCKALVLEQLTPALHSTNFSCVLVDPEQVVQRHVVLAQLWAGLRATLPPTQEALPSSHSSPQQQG
Chain of IL-18 receptor alpha chain (Homo sapiens) (Q13478 19-541): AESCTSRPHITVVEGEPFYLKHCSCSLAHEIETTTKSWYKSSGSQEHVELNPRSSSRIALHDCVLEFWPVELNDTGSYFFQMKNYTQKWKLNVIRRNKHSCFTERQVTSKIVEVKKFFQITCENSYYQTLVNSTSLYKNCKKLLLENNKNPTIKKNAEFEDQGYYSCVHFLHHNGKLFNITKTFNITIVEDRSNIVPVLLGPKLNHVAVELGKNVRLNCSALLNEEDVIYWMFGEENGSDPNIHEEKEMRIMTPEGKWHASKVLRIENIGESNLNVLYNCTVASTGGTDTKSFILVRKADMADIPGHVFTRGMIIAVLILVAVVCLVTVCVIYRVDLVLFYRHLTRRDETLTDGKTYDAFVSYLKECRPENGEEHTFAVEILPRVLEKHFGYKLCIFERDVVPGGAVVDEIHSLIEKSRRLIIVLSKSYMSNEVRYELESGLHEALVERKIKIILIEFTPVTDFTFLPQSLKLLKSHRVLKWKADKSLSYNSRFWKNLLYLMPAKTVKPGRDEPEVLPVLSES
Chain of IL-18 receptor complex (Homo sapiens) (Q13478 19-541, chain 1 of 2): as the sequence (Q13478 19-541) above
Chain of IL-18 receptor complex (Homo sapiens) (O95256 20-599, chain 2 of 2, further chain): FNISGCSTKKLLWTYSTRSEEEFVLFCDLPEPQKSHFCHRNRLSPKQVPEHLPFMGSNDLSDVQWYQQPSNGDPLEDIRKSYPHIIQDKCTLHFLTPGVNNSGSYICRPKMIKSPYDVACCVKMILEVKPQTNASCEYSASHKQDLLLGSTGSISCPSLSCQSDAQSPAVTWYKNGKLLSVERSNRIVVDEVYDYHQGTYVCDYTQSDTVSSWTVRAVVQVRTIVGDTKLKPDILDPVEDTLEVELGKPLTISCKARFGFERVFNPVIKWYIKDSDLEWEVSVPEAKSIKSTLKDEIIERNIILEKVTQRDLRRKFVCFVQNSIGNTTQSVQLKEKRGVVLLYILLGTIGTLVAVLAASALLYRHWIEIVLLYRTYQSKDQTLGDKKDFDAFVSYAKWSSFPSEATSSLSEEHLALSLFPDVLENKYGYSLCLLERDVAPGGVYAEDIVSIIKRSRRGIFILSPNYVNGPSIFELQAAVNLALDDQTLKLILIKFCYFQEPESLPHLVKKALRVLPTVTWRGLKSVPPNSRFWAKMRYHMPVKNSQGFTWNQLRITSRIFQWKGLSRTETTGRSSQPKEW

For the substance IL-18 (from UniProt Q14116), the Kd (in general, the concentration at which binding is half-saturated) was 18.5 nM in series [1] and 0.4 nM in series [2].

Consider IL-18BP (from UniProt O95998), for which the Kd in series [3] was 0.4 nM; in series [4], 0.05 nM.
